Experimental data from article PMC10497828 (2023).

Assays:
amyloid beta monomer = amyloid beta monomer (Homo sapiens, UniProt P05067); assay: saturation binding/Scatchard
amyloid beta oligomers = amyloid beta oligomers (Homo sapiens, UniProt P05067); assay: saturation binding/Scatchard
Sequence of amyloid beta oligomers (P05067 672-713): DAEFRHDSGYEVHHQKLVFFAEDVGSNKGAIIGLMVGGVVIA

Sequence of amyloid beta monomer (P05067 672-713): as above

B1: BP (VEGF-derived peptide) (protein)
chain: MTDRQTDTAPSPSYHLLPGRRRTVDAAASRGQGPEPAPGGGVEGVGARGVALKLFVQLLGCSRFGGAVVRAGEAEPSGAARSASSGREEPQPEEGEEEEEKEEERGPQWRLGARKPGSWTGEAAVCADSAPAARAPQALARASGRGGRVARRGAEESGPPHSPSRRGSASRAGPGRASETMNFLLSWVHWSLALLLYLHHAKWSQAAPMAEGGGQNHHEVVKFMDVYQRSYCHPIETLVDIFQEYPDEIEYIFKPSCVPLMRCGGCCNDEGLECVPTEESNITMQIMRIKPHQGQHIGEMSFLQHNKCECRPKKDRARQEKKSVRGKGKGQKRKRKKSRYKSWSVPCGPCSERRKHLFVQDPQTCKCSCKNTDSRCKARQLELNERTCRCDKPRR
In the case of B1, the Kd (amyloid beta monomer) is reported as 19 µM and the Kd (amyloid beta oligomers) is reported as 0.012 µM.
